{"source": "patent US20140162960", "key": {"[1]": {"molecular_target": "myc-tagged mutant IQGAP1 WW domain expressed from lentivirus (pLEX-mycYY)"}, "[2]": {"molecular_target": "T1, myc-tagged IQGAP1 WW domain expressed from lentivirus (pLEX-mycWW)", "T1 chain": "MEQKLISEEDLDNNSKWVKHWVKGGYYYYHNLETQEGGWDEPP"}}}
{"protein": "ERK1 (extracellular signal-regulated kinase 1), endogenous (protein) AAAAAQGGGGGEPRRTEGVGPGVPGEVEMVKGQPFDVGPRYTQLQYIGEGAYGMVSSAYDHVRKTRVAIKKISPFEHQTYCQRTLREIQILLRFRHENVIGIRDILRASTLEAMRDVYIVQDLMETDLYKLLKSQQLSNDHICYFLYQILRGLKYIHSANVLHRDLKPSNLLINTTCDLKICDFGLARIADPEHDHTGFLTEYVATRWYRAPEIMLNSKGYTKSIDIWSVGCILAEMLSNRPIFPGKHYLDQLNHILGILGSPSQEDLNCIINMKARNYLQSLPSKTKVAWAKLFPKSDSKALDLLDRMLTFNPNKRITVEEALAHPYLEQYYDPTDEPVAEEPFTFAMELDDLPKERLKELIFQETARFQPGVLEAP", "values": [{"measurement": "phosphorylated ERK levels (immunoblot)", "setting": "[1]", "value": "Primary normal human keratinocytes infected with this WW domain mutant had normal levels of phosphorylated ERK"}, {"measurement": "pELK1 levels in IP-kinase assay (pERK immunoprecipitate, ELK-1 substrate)", "setting": "[2]", "value": "revealed diminished downstream pELK1 levels as compared to control treated cells"}, {"measurement": "phosphorylated ERK levels (tissue stain and immunoblot)", "setting": "[2]", "value": "WW domain expressing tissue also showed diminished phosphorylated ERK without an effect on total ERK levels"}]}
